The data set in a line: soluble on expression in E. coli; label from the status in PepcDB or PDB records.
In the case of “MSLLIKFESKSARVKGISFHPTRPWVLTSLHSGVIQLWDYRMCVLLEKFDEHDGPVRGICFHHDQPIFVSGGDDYKIKVWNYKQKRCIFTLLGHLDYIRTTFFHHKYPWIISASDDQTVRIWNWQSRNSIAILTGHNHYVMCAQFHPTEDLVASASLDQTVRVWDISGLRKKQMPGGGAPSRPTGGQQAELFGQPDAVVKHVLEGHDRGVNWVAFHHTNPILVSGSDDRQVKIWRYNETKAWELDSCRGHYNNVSSVIFHPNADLILSNSEDKSIRVWDMQKRTSLHVFRHENERFWVLAAHPSLNMFAAGHDNGMVVFKIQRERPAYCVSDNLVFYVKGQQIRKLDLTTNKDVALCKLRYPQPFMQPYYSLSFNPAEGTFLLTSRTHNKDLCAFELYKVASNSDGTTEAACVKSTGINALWVARNRFAVLDKAQNVSLRDLTNKELRKLENINTAVDDIFYAGTGMLLLRNDDGLQLFDVQQKIVTASVKVSKVRYVIWSKSMEFAALLSKHTLTLVNRKLEILCTQQESTRVKSGAWDDDSVFLYTTSNHIKYAINSGDCGIVRTLDLPLYILAIRGNVLYCLNRDATPVEVPIDNSDYKFKLALINKRIDEVVNMVRSANLVGQSIIGYLEKKGYPEIALHFVKDEKTRFGLAIECGNLEIALEAAKKLDEPAVWEALGETALLQGNHQIVEMSYQRTKNFEKLSFLYFVTGNTDKLVKMMKIAQARNDAHGHFQTALYTGDVEERVKVLRNCGQTSLAYLAAATHGYSAEAEELKAELESRQQPIPPVDPNARLLVPPPPVARLEENWPLLASARGTFDAQLLGLGGQSAPTNVGGVKPAAAAFAVMDDDDGDVGNEAWGDDEYLVGEDGELDVDEGEGPVDGDEEGGWDVDDDLALPDVTDDQGGDDDEEVVPNPAPAVSSEWPNVSRLAADHVAAGSFGTAIKLLHDTIGVVEAAPFKDVFVKAYAASRLSHRGWGGLGPAGPVSIHPVRNFQEDKNHLPVAAFKLSQLAKKLQKAYQMTTNGKFGDAVEKLREILLSVPLIVVSSKQEVAEAEQLITITREYLAALLLETYRKDLPKTNLEDAKRNAELAAYFTHFELQPMHRILTLRSAINTFFKMKQMKTCASLCKRLLELAPKPEVAAQIRKVLTAAEKDNTDAHQLTYDEHNPFVVCSRQFVPLYRGRPLCKCPYCGASYSEGLEGEVCNVCQVAEVGKNVLGLRISTLKS”, the “soluble on expression in E. coli” value was “not soluble”. The same measure for “QVQLQESGPGLVAPSQSLSITCTVSGFSLTGYGVNWVRQPPGKGLEWLGMIWGDGNTDYNSALKSRLSISKDNSKSQVFLKMNSLHTDDTARYYCARERDFRLDYWGQGTTLTVSS”: “soluble”; for “MGSDKIHHHHHHMTRSGIGIRTAQQQSGRLTGQIHVYDGAGKGKSQAALGVVLRSIGLGIRDQWQSRVLLLRFLKGPGRTYDEDAAIEALQQGFPHLIDQVRTGRAEFFGPDAISRFDRQEARRGWDIAKGAIVSGLYSVIVLDELNPILDLGLLPVDEVVQTLRQKPPQVEVIATGRGAPPQLLEIADLHSEMIAHANPAVAPVGMEGIEIYTGEGKGKSTSALGKALQAIGRGIGQDLSHRVLILQWLKGGSGYTEDAAIQALRQSYPHLVDHQRSGRDAIVWRGQQQEIDYIEAERAWEIARAAIASGLYKTIILDELNPTVDLELLPEEPILQALLRKPRDTEVIITGRCKQIPAYFHLASVHSEMVCHKHYAERGIELKRGVDY”: “not soluble”; for “MGSDKIHHHHHHMNHTSADTTLRAFAQLIAEGTCLPAEERAPGQLKTGVDLGTANIVLSVVDANNRPVTGAMFPSTVVRDGIVVDYVGAVSVVRRLKAELEDRLGCPLTFAGTAIPPGILAGNVKAIANVVEAAGFEVADVSDEPTAASRVLGLREGAVVDVGGGTTGISILKNGEVVFTDDEATGGTHMTLVLAGAHGVSFEEAEAMKKDTAAARDVFAVVQPVVEKMASIVKRCLKGYDVETVYVVGGACTFDQFEQVFRKEIGLTIVKPAEPLLVTPLGIAMYGATPGEGAL”: “not soluble”. The value for “MGSDKIHHHHHHMDAFYASVEQRDNPELCGKPLAVGHAEERGVVAAASYEARRYGVHSAMSSQKAKRLCPELIFVPGRMNVYKAVSRQIHDIFHTYTDIIEPLSLDEAFLDVTENKAGFSLAIDIAKDIKKRIRKELGLIASAGVSYNKFLAKIASDYRKPDGLCTIHPDQALDFIAHLPIESFWGVGPVTAQKMHALGIHNGTQLQACTLEMLTRQFGKAGNLYYDFARGIDLRPVEPIRIRKSVGCEHTLEKDISLHSSAIIELYHVVTELLERLKRTNFSGNTLTLKIKFHDFNQITRSITQDSELTSMDKILPLAKKLLKEIDYESHPIRLIGLSVSNPKEEIKKQWEQLSLEFKEWDD” was “not soluble”; that for “MGSDKIHHHHHHMFSAMLEVNPIPEQFDAYLGMAKMLRPELEKIEGFIDNERYESLTRPGWLLSLSNWRDEKSLIRWRTTTKHHKVQQAARDRIFADYRLRIGEVDTDTHLPIGEALHQQRLDVTEAGEGKAVTLLDADRSRYWLNGASAEAVAKSLGLDAQARGLLAWDVFKALLSPEEVIVVLTWRDEAAALAFGKNARLPGDVRLRSIRIVREYGMFDRREAPQYFEEVPRKA” was “not soluble”; that for “GMTSPVAVIARFMPRPDARSALRALLDAMITPTRAEDGCRSYDLYESADGGELVLFERYRSRIALDEHRGSPHYLNYRAQVGELLTRPVAVTVLAPLDEASA” was “soluble”. The value for “SNAMSMAYEEYMRQLVVPMRRELTGAGFEELTTAEEVENFMEKAEGTTLVVVNSVCGCAAGLARPAATQAVLQNDKTPDNTVTVFAGQDKEATAKMREYFTGAAPSSPSMALLKGKEVVHFIPRHEIEGHDMEEIMKNLTAAFDAHC” was “soluble”; that for “MFVFDATPLIYLAKAERLSLLSRLDASRLIPQRVYEEVVTVGLDAGYPDARRIEQSVEEGTFDVVSVPETTLFDRLSGNPNVSDADVAVLALAADHGATAVMDDAYGRDIAAVEAIETRGTAYLVLSLVRDGELEADDARETLEAMLDAGWHCSPSLYSKLLSKLEELAVGGADNRLEHHHHHH” was “not soluble”. For the sequence “MGSDKIHHHHHHMNVENQTPNVDHQEIAKFEAIASRWWDLEGEFKPLHRINPLRLGYISQRAEGLFGKKVLDVGCGGGILAESMAREGADVTGLDMGAEPLQVARLHALESGVTVDYVQETVEAHADAHSGLYDVVTCMEMLEHVPDPQSVVQACAKLVKPGGHVFFSTINRNAKAWMMAVIGAEYILKMVPRGTHDIKKFIRPAELMRWVDDTPLRERHITGLHYNLLTDRFKLGPNVDVNYMLHTSHDKQC”, the “soluble on expression in E. coli” value was “not soluble”. The same measure for “MKTLVHLSDLHFGKTESHLVDAIAAEVRAVDSDLLVVSGDLTQRARKDEFLQARAFLDSLPGPRIVVPGNHDVPLWNVFARAMTPLSRYRRYIEADTDPFYADSEVAVVGINTARSLTIKNGRINVRQLKAATEKFAYMSDDITRIVVTHHPFEGLDLESDDGIVARADLAMDAFSRSGVDIILSGHQHLHRAGSSARRYLIDGYAALLVQAGTAVSSRVRQAANSFNIIRIEHPRISIECRAWQSLQSGFETSASYSFRQGSGGWEPALEHHHHHH”: “not soluble”; for “KLGTSTGEFTGSNQTTQPTAIMELINKVQKDAANAQLSIAAPLSSSAYIPKGDVTIKDIMSVYVYENYLYGIKMTGKQLKDWLEYSVRYYKQVSSPNDSIAKDPALNVPDYNLDQLYGATYDIDLTQPACTIDPSTGRIASGDRIKNLKINGVPIKDSDVFTVAINDYRYNGGGGFMKAAGISNTDPSIVTYSSAKALGDDGQVRSLMQSYIKNNQTISPENSNNWKLYTT”: “not soluble”. The value for “MSELILHHYPTSLFAEKARLMLGFKGVNWRSVTIPSIMPKPDLTALTGGYRKTPVLQIGADIYCDTALMARRLEQEKASPAFYPQGQEFAVAGLAAWADSVLFLHAVSLVFQPESMAVRFAKVPPDAAKAFIADRSMLFNGGTASRPPVEQVKHQWPTFMSRLESQLSHGGDFLFGAPSIADFSVAHTLWFLKQTPVTAPFVDDYPSVSVWLDRVLGFGHGSLSDLSSAAAIEIASNATPAPLPDETFIDPNGFKAGDKVAIAAVDYGVEAVEGELMFTGREELILRREDNRAGVVHVHFPRLGFRVEKR” was “soluble”.

In the case of “MLSGTRSRSSTKARKGTPRPPALSQSVYCGRRYTGPHTTFFFEITNDEYLLLSVLIFCNPALLQLSENGKLLLTIYRNLYCSALLQHCLLNNQKSGPARFTELLGVYQAIEVHYSDLANYIVLFQLNRPKVNQIVKNCFEAVT”, the “soluble on expression in E. coli” value is given as “not soluble”. As for “MRKLKMMLFGASLIMVAGCSSKENALCHPQPKPPAPPAWAMMPPSNSLQLLDETFSVSGTESSETRQHLEHHHHHH”, the “soluble on expression in E. coli” value is recorded as “not soluble”.

Source of the values: the DeepSol protein solubility set.
